Test results as given in paper PMC2119608.

Biological target: CD3 gamma subunit, transiently expressed in COS cells (human) (UniProt P09693)
Test: co-IP

Sequence of UniProt P09693 (P09693 23-182): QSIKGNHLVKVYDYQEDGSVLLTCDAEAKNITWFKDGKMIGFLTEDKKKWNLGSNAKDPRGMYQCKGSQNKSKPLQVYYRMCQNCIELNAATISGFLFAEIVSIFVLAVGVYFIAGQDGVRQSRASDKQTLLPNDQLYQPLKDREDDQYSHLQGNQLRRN

“T cell antigen receptor (TCR) beta chain, transiently expressed in COS cells” showed a percent bound to CD3 subunits of 60%.
